In US20150203577A1 (Chugai, published 2015):

T1: mouse FcγRII extracellular domain, C-terminally His-tagged (mouse, UniProt P08101 30-210)
T1 construct: the whole entry is named; also called mFcγRII; mFcgRII
T1 sequence: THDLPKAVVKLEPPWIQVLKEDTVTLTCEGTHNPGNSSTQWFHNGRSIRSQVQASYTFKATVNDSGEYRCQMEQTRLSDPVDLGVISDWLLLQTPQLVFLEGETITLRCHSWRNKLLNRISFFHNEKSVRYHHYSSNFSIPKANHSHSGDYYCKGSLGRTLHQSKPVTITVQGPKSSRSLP

T2: mouse FcγRIII extracellular domain, C-terminally His-tagged (mouse, UniProt P08508 31-215)
T2 construct: the whole entry is named; also called mFcγRIII; mFcgRIII
T2 chain: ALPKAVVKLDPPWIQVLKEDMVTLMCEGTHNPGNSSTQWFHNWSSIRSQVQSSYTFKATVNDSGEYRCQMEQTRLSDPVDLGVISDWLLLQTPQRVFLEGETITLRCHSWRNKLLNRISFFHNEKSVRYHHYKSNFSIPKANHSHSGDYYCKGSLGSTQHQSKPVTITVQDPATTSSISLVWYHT


Experiments:
[1] = biological target: T1, mouse FcγRII extracellular domain, …; assay: SPR Biacore T200, KD ratio
Excerpt: (§1) The antibody H chain variable region used was the variable region H237 (SEQ ID NO: 1) of the H chain VH3-IgG1 of the anti-IL-6 receptor antibody Fv4-IgG1 described in WO2009/125825. The antibody L chain commonly used was the L chain MRAL-k0 (SEQ ID NO: 2) of the anti-IL-6 receptor antibody tocilizumab. […] The resulting variant groups were designated as MB397 variants and MB390 variants, respectively. These variants were expressed and purified by the method of Reference Example 1 and evaluated for their binding to mFcγRII and mFcγRIII by the method of Reference Example 2 using Biacore T200.
(§2) Each altered antibody was analyzed for its interaction with each Fcγ receptor prepared above using Biacore T100 (GE Healthcare Japan Corp.), Biacore T200 (GE Healthcare Japan Corp.), Biacore A100, or Biacore 4000. The running buffer used was HBS-EP+ (GE Healthcare Japan Corp.). The assay temperature was set to 25° C. The sensor chips used were chips prepared by immobilizing Protein L (ACTIGEN or BioVision) onto Series S Sensor Chip CM5 (GE Healthcare Japan Corp.) or Series S Sensor Chip CM4 (GE Healthcare Japan Corp.) by the amine coupling method.
(§3) In order to calculate the KD value of each altered antibody for FcγR, kinetic analysis was conducted according to the following method: first, the antibody of interest was captured onto any of these chips and allowed to interact with mFcγR diluted with a running buffer. For the obtained sensorgram, the assay results were globally fit into the 1:1 Langmuir binding model using Biacore Evaluation Software to calculate an association rate constant ka (L/mol/s) and a dissociation rate constant kd (1/s). From these values, the dissociation constant KD (mol/L) was calculated.

[2] = biological target: T2, mouse FcγRIII extracellular domain, …; assay: SPR Biacore T200, KD ratio
Excerpt: as §1, §2, §3

Binder	relative mFcγRII-binding activity (MB397 = 1) [1] [fold]	relative mFcγRII-binding activity (mIgG1 = 1) [1] [fold]	relative mFcγRIII-binding activity (MB397 = 1) [2] [fold]	relative mFcγRIII-binding activity (mIgG1 = 1) [2] [fold]
H237-MB461/MRAL-k0 (antibody, mouse IgG1, kappa, copies: 2 + 2) heavy: QVQLQESGPGLVKPSETLSLTCAVSGHSISHDHAWSWVRQPPGEGLEWIGFISYSGITNYNPSLQGRVTISRDNSKNTLYLQMNSLRAEDTAVYYCARSLARTTAMDYWGEGTLVTVSSAKTTPPSVYPLAPGSAAQTNSMVTLGCLVKGYFPEPVTVTWNSGSLSSGVHTFPAVLQSDLYTLSSSVTVPSSTWPSETVTCNVAHPASSTKVDKKIVPRDCGCKPCICETYEVEDVFIFPPKPKDVLTITLTPKVTCVVVDISKDDPEVQFSWFVDDVEVHTAQTQPREEQFNSTFRSVSELPIMHQDWLNGKEFKCRVNSAAFPAPIEKTIIKTKGRPKAPQVYTIPPPKEQMAKDKVSLTCMITDFFPEDITVEWQWNGQPAENYKNTQPIMDTDGSYFVYSKLNVQKSNWEAGNTFTCSVLHEGLHNHHTEKSLSHSPGK light: not shown	0.45	247	0.97	18.8
H237-MB458/MRAL-k0 (antibody, mouse IgG1, kappa, copies: 2 + 2) heavy: QVQLQESGPGLVKPSETLSLTCAVSGHSISHDHAWSWVRQPPGEGLEWIGFISYSGITNYNPSLQGRVTISRDNSKNTLYLQMNSLRAEDTAVYYCARSLARTTAMDYWGEGTLVTVSSAKTTPPSVYPLAPGSAAQTNSMVTLGCLVKGYFPEPVTVTWNSGSLSSGVHTFPAVLQSDLYTLSSSVTVPSSTWPSETVTCNVAHPASSTKVDKKIVPRDCGCKPCICETYEVEDVFIFPPKPKDVLTITLTPKVTCVVVDISKDDPEVQFSWFVDDVEVHTAQTQPREEQFNSTFRSVSELPIMHQDWLNGKEFKCRVNSAAFPAPIVKTISKTKGRPKAPQVYTIPPPKEQMAKDKVSLTCMITDFFPEDITVEWQWNGQPAENYKNTQPIMDTDGSYFVYSKLNVQKSNWEAGNTFTCSVLHEGLHNHHTEKSLSHSPGK light: not shown	0.46	253	0.81	15.7
H237-MB460/MRAL-k0 (antibody, mouse IgG1, kappa, copies: 2 + 2) heavy: QVQLQESGPGLVKPSETLSLTCAVSGHSISHDHAWSWVRQPPGEGLEWIGFISYSGITNYNPSLQGRVTISRDNSKNTLYLQMNSLRAEDTAVYYCARSLARTTAMDYWGEGTLVTVSSAKTTPPSVYPLAPGSAAQTNSMVTLGCLVKGYFPEPVTVTWNSGSLSSGVHTFPAVLQSDLYTLSSSVTVPSSTWPSETVTCNVAHPASSTKVDKKIVPRDCGCKPCICETYEVEDVFIFPPKPKDVLTITLTPKVTCVVVDISKDDPEVQFSWFVDDVEVHTAQTQPREEQFNSTFRSVSELPIMHQDWLNGKEFKCRVNSAAFPAPIEKYISKTKGRPKAPQVYTIPPPKEQMAKDKVSLTCMITDFFPEDITVEWQWNGQPAENYKNTQPIMDTDGSYFVYSKLNVQKSNWEAGNTFTCSVLHEGLHNHHTEKSLSHSPGK light: not shown	0.6	332	1.1	21.2
H237-MB455/MRAL-k0 (antibody, copies: 2 + 2) heavy: QVQLQESGPGLVKPSETLSLTCAVSGHSISHDHAWSWVRQPPGEGLEWIGFISYSGITNYNPSLQGRVTISRDNSKNTLYLQMNSLRAEDTAVYYCARSLARTTAMDYWGEGTLVTVSSAKTTPPSVYPLAPGSAAQTNSMVTLGCLVKGYFPEPVTVTWNSGSLSSGVHTFPAVLQSDLYTLSSSVTVPSSTWPSETVTCNVAHPASSTKVDKKIVPRDCGCKPCICETYEVEDVFIFPPKPKDVLTITLTPKVTCVVVDISKDDPEVQFSWFVDDVEVHTAQTQPREEQFNSTFRSVSELPIMHQDWLNGKEFKCRVNSAAFPAYIEKTISKTKGRPKAPQVYTIPPPKEQMAKDKVSLTCMITDFFPEDITVEWQWNGQPAENYKNTQPIMDTDGSYFVYSKLNVQKSNWEAGNTFTCSVLHEGLHNHHTEKSLSHSPGK light: not shown	0.6	332	1.38	26.6

Next, values leading:

relative mFcγRII-binding activity (MB397 = 1) [1] [fold]	relative mFcγRII-binding activity (mIgG1 = 1) [1] [fold]	relative mFcγRIII-binding activity (MB397 = 1) [2] [fold]	relative mFcγRIII-binding activity (mIgG1 = 1) [2] [fold]	Binder
0.53	295	1.04	20	H237-MB454/MRAL-k0 (antibody, mouse IgG1, kappa, copies: 2 + 2) heavy: QVQLQESGPGLVKPSETLSLTCAVSGHSISHDHAWSWVRQPPGEGLEWIGFISYSGITNYNPSLQGRVTISRDNSKNTLYLQMNSLRAEDTAVYYCARSLARTTAMDYWGEGTLVTVSSAKTTPPSVYPLAPGSAAQTNSMVTLGCLVKGYFPEPVTVTWNSGSLSSGVHTFPAVLQSDLYTLSSSVTVPSSTWPSETVTCNVAHPASSTKVDKKIVPRDCGCKPCICETYEVEDVFIFPPKPKDVLTITLTPKVTCVVVDISKDDPEVQFSWFVDDVEVHTAQTQPREEQFNSTFRSVSELPIMHQDWLNGKEFKCRVNSAAFPAFIEKTISKTKGRPKAPQVYTIPPPKEQMAKDKVSLTCMITDFFPEDITVEWQWNGQPAENYKNTQPIMDTDGSYFVYSKLNVQKSNWEAGNTFTCSVLHEGLHNHHTEKSLSHSPGK light: not shown
0.12	67.9	0.23	4.5	H237-MB456/MRAL-k0 (antibody, mouse IgG1, kappa, copies: 2 + 2) heavy: QVQLQESGPGLVKPSETLSLTCAVSGHSISHDHAWSWVRQPPGEGLEWIGFISYSGITNYNPSLQGRVTISRDNSKNTLYLQMNSLRAEDTAVYYCARSLARTTAMDYWGEGTLVTVSSAKTTPPSVYPLAPGSAAQTNSMVTLGCLVKGYFPEPVTVTWNSGSLSSGVHTFPAVLQSDLYTLSSSVTVPSSTWPSETVTCNVAHPASSTKVDKKIVPRDCGCKPCICETYEVEDVFIFPPKPKDVLTITLTPKVTCVVVDISKDDPEVQFSWFVDDVEVHTAQTQPREEQFNSTFRSVSELPIMHQDWLNGKEFKCRVNSAAFPAPINKTISKTKGRPKAPQVYTIPPPKEQMAKDKVSLTCMITDFFPEDITVEWQWNGQPAENYKNTQPIMDTDGSYFVYSKLNVQKSNWEAGNTFTCSVLHEGLHNHHTEKSLSHSPGK light: not shown
0.51	285	1.06	20.5	H237-MB459/MRAL-k0 (antibody, mouse IgG1, kappa, copies: 2 + 2) heavy: QVQLQESGPGLVKPSETLSLTCAVSGHSISHDHAWSWVRQPPGEGLEWIGFISYSGITNYNPSLQGRVTISRDNSKNTLYLQMNSLRAEDTAVYYCARSLARTTAMDYWGEGTLVTVSSAKTTPPSVYPLAPGSAAQTNSMVTLGCLVKGYFPEPVTVTWNSGSLSSGVHTFPAVLQSDLYTLSSSVTVPSSTWPSETVTCNVAHPASSTKVDKKIVPRDCGCKPCICETYEVEDVFIFPPKPKDVLTITLTPKVTCVVVDISKDDPEVQFSWFVDDVEVHTAQTQPREEQFNSTFRSVSELPIMHQDWLNGKEFKCRVNSAAFPAPIEKNISKTKGRPKAPQVYTIPPPKEQMAKDKVSLTCMITDFFPEDITVEWQWNGQPAENYKNTQPIMDTDGSYFVYSKLNVQKSNWEAGNTFTCSVLHEGLHNHHTEKSLSHSPGK light: not shown
0.36	202	0.7	13.6	H237-MB457/MRAL-k0 (antibody, mouse IgG1, kappa, copies: 2 + 2) heavy: QVQLQESGPGLVKPSETLSLTCAVSGHSISHDHAWSWVRQPPGEGLEWIGFISYSGITNYNPSLQGRVTISRDNSKNTLYLQMNSLRAEDTAVYYCARSLARTTAMDYWGEGTLVTVSSAKTTPPSVYPLAPGSAAQTNSMVTLGCLVKGYFPEPVTVTWNSGSLSSGVHTFPAVLQSDLYTLSSSVTVPSSTWPSETVTCNVAHPASSTKVDKKIVPRDCGCKPCICETYEVEDVFIFPPKPKDVLTITLTPKVTCVVVDISKDDPEVQFSWFVDDVEVHTAQTQPREEQFNSTFRSVSELPIMHQDWLNGKEFKCRVNSAAFPAPIYKTISKTKGRPKAPQVYTIPPPKEQMAKDKVSLTCMITDFFPEDITVEWQWNGQPAENYKNTQPIMDTDGSYFVYSKLNVQKSNWEAGNTFTCSVLHEGLHNHHTEKSLSHSPGK light: not shown
0.39	214	0.78	15.1	H237-MB462/MRAL-k0 (antibody, mouse IgG1, kappa, copies: 2 + 2) heavy: QVQLQESGPGLVKPSETLSLTCAVSGHSISHDHAWSWVRQPPGEGLEWIGFISYSGITNYNPSLQGRVTISRDNSKNTLYLQMNSLRAEDTAVYYCARSLARTTAMDYWGEGTLVTVSSAKTTPPSVYPLAPGSAAQTNSMVTLGCLVKGYFPEPVTVTWNSGSLSSGVHTFPAVLQSDLYTLSSSVTVPSSTWPSETVTCNVAHPASSTKVDKKIVPRDCGCKPCICETYEVEDVFIFPPKPKDVLTITLTPKVTCVVVDISKDDPEVQFSWFVDDVEVHTAQTQPREEQFNSTFRSVSELPIMHQDWLNGKEFKCRVNSAAFPAPIEKTIKKTKGRPKAPQVYTIPPPKEQMAKDKVSLTCMITDFFPEDITVEWQWNGQPAENYKNTQPIMDTDGSYFVYSKLNVQKSNWEAGNTFTCSVLHEGLHNHHTEKSLSHSPGK light: not shown
